Laboratory results published in patent US20240190989A1 (BEIGENE SWITZERLAND, published 2024).
Several values for one entry are separate records, joined by “and”; a condition that tells them apart may be missing. Equal entries are not always repeated.

Tests used:
[1] = biological target: T1, full-length human CD137 on cells (Hut78/huCD137, HEK293 transfectants, JK-NFKB-CD137) (human, UniProt Q07011 24-255); assay: cell-based or functional assay
[2] = biological target: T2, cynoCEA (Cat. CE5-C52H5, Acrobiosystem) (cynomolgus monkey); assay: SPR, Monkey CEA
T2 construct: Bought protein; also called Monkey CEA

[3] = biological target: T3, full-length human CEA on cells (MKN45, LOVO, L929/huCEA, CT26/CEA, CT26-OS8-CEA) (human, UniProt P06731 35-685); assay: FACS on CT26-OS8-CEA cells
T3 construct: also called CEACAM5; native CEA
T3 sequence: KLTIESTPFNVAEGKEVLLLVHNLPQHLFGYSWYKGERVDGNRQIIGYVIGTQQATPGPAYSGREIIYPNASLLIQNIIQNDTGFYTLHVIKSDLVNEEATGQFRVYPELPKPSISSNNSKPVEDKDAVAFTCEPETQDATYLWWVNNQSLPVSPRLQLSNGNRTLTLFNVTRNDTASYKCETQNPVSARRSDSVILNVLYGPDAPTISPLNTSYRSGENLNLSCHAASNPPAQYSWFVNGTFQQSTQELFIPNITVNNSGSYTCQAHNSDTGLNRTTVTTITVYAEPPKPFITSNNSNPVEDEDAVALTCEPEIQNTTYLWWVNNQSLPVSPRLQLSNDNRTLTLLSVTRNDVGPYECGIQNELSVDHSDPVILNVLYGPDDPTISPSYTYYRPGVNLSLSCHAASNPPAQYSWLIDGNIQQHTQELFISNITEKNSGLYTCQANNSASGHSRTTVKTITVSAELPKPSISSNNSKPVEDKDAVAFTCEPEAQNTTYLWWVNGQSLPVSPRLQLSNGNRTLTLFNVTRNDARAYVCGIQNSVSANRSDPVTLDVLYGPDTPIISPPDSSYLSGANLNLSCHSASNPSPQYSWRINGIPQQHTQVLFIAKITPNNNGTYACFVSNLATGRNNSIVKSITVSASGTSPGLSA

[4] = biological target: FcγRIIIAV158 (UniProt P08637 17-208); assay: ELISA-based FcγR binding, luminescence read-out (RLU)
[5] = biological target: FcγRI (UniProt P12314 16-288, limits assumed); assay: as above
[6] = biological target: T4, FcγRIIAR131 (UniProt P12318 34-218); assay: as above
T4 sequence (looked up): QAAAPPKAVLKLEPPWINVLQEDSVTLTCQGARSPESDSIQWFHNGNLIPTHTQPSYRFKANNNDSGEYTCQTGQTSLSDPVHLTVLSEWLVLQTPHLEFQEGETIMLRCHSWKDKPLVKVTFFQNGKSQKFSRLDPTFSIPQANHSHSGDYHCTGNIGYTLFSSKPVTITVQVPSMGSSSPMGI

[7] = biological target: T5, FcγRIIB (UniProt P31994 43-217, limits assumed); assay: as above
T5 sequence (looked up): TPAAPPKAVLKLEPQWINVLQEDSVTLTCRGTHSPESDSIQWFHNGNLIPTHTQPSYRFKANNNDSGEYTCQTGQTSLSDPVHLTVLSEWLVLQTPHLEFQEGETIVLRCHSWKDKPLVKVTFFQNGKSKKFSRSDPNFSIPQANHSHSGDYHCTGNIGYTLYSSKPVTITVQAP

[8] = biological target: T6, soluble human CEA, amino acids 1-687 of huCEA with C-terminal 6xHis tag (human, UniProt P06731 35-687); assay: antigen ELISA on huCEA (CEA/His), two batches of BE-146 [panel A]
T6 construct: also called sCEA; soluble huCEA
T6 sequence: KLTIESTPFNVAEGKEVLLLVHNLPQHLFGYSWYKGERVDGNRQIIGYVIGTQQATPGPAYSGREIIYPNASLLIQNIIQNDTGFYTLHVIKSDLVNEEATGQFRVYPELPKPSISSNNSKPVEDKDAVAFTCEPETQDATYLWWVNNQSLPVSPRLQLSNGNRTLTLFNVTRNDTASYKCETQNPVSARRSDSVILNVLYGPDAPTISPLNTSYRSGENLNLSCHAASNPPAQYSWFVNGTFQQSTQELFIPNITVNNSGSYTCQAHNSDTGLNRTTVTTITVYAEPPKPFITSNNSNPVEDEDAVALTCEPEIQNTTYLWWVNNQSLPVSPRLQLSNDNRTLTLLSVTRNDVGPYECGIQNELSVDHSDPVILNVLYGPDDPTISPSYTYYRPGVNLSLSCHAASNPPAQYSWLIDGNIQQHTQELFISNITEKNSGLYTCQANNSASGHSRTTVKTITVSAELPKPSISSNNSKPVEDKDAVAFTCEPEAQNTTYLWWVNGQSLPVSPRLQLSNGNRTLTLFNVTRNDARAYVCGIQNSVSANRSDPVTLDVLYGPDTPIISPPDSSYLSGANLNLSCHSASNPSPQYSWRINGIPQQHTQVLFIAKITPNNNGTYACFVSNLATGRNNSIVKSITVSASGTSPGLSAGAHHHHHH

[9] = biological target: T6, soluble human CEA, amino acids 1-687 of …; assay: SPR, Human CEA
[10] = biological target: T1, full-length human CD137 on cells …; assay: FACS on HuT78/CD137 cells
[11] = biological target: T7, human CD137 ECD-mIgG2a (human); assay: antigen ELISA on huCD137-mIgG2a [panel B]
T7 construct: ECD 24-183 of huCD137 fused to mouse IgG2a Fc; also called huCD137-mIgG2a; huCD137

T1 sequence (Q07011 24-255 limits assumed): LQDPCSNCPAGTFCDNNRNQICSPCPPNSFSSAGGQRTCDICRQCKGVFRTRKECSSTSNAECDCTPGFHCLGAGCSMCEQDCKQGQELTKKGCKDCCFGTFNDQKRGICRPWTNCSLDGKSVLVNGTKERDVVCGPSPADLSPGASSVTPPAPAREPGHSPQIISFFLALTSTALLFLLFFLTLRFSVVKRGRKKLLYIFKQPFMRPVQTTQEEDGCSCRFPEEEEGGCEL
Sequence of FcγRI (P12314 16-288 limits assumed): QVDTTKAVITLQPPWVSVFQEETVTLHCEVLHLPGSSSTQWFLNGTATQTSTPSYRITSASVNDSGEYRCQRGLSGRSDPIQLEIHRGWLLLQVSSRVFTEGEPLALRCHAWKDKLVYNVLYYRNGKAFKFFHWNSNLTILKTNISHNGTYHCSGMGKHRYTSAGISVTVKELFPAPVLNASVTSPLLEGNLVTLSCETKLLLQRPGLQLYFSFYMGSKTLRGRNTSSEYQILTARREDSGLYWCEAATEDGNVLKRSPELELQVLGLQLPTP
Sequence of FcγRIIIAV158 (P08637 17-208 F176V): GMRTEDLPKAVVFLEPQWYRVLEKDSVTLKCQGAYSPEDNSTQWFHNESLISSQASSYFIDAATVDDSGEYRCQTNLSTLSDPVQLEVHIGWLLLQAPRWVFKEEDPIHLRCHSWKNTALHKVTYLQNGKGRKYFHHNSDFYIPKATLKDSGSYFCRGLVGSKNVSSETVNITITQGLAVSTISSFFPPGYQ

B1: BE-146 (CEAxCD137 multispecific antibody) (bispecific antibody, human IgG1, kappa)
heavy: QVQLVQSGAEVKKPGASVKVSCKASGYIFTSYYLHWVRQAPGQGLEWIGYINPQTGKTSYAQKFQGRVTMTRDTSTSTVYMELSSLRSEDTAVYYCAREYGNYNYPLDYWGQGTLVTVSSASTKGPSVFPLAPSSKSTSGGTAALGCLVKDYFPEPVTVSWNSGALTSGVHTFPAVLQSSGLYSLSSVVTVPSSSLGTQTYICNVNHKPSNTKVDKKVEPKSCDKTHTCPPCPAPPAAGPSVFLFPPKPKDTLMISRTPEVTCVVVDVSHEDPEVKFNWYVDGVEVHNAKTKPREEQYNSTYRVVSVLTVLHQDWLNGKEYKCKVSNKALAAPIEKTISKAKGQPREPQVYTLPPSREEMTKNQVSLTCLVKGFYPSDIAVEWESNGQPENNYKTTPPVLDSDGSFFLYSKLTVDKSRWQQGNVFSCSVMHEALHNHYTQKSLSLSPGKGGGGSEVQLLESGGGLVQPGGSLRLSCAASGFTVSAEDVGWVRQAPGKGLEWVSAILDKGGSTYYAESVKGRFTISRDNAKNTLYLQMSSLRAEDTAVYYCARIVYHAGGGVTFDTRGQGTQVTVSS
light: DIQMTQSPSSLSASVGDRVTITCRASENQYGYLAWYQQKPGKVPKLLIYNYKNLVEGVPSRFSGSGSGTDFTLTISSLQPEDVATYYCQHHLGTPYTFGQGTKVEIKRTVAAPSVFIFPPSDEQLKSGTASVVCLLNNFYPREAKVQWKVDNALQSGNSQESVTEQDSKDSTYSLSSTLTLSKADYEKHKVYACEVTHQGLSSPVTKSFNRGEC
notes: Module ratio 2:2, Fc null version of huIgG1; copies: 2 + 2
For B1, the “NF-kB luciferase reporter in JK-NFKB-CD137 cells co-cultured with CT26-OS8-CEA, EC50” value [1] was 0.51 µg/mL and 2.91 nM and 0.56 µg/mL and 3.2 nM, the Kd [2] was 11.4 nM and the koff [2] was 0.000717 s⁻¹. The kon [2] was 63000 M⁻¹ s⁻¹, the EC50 [3] was 1.53 µg/mL and 8.75 nM and the binding result [4] was “no binding (tested: not shown)”. B1: no binding (tested: not shown) [5]; no binding (tested: not shown) [6]; no binding (tested: not shown) [7]. For the same binder, the “EC50 (read off the curve)” value [8] was about 0.07 µg/mL, the Kd [9] was 3 nM and the koff [9] was 0.000295 s⁻¹. The kon [9] was 98500 M⁻¹ s⁻¹, the EC50 [10] was 2.26 µg/mL and 12.9 nM and the “EC50 (read off the curve)” value [11] was about 0.08 µg/mL.
